Data as given in patent US6881402.

Biological target: human Fas (human) (UniProt P25445)
Test: cell-based or functional assay

Chain of UniProt P25445 (P25445 26-335): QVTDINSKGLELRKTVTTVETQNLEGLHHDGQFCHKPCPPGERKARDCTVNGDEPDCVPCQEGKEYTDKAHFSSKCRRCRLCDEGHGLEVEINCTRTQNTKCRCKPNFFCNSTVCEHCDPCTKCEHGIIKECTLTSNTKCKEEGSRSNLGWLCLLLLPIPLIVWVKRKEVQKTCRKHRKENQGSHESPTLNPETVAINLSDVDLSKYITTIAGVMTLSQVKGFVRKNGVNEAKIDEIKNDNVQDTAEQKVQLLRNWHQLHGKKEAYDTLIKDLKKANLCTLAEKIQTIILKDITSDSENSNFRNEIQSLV

For “CH-11 agonist mAb to Fas (Panvera, Madison, WI) (antibody)”, which apoptotic nuclei (DAPI) in MCF7-Fas cells transfected with pMT2 alone, treated 9 h with CH-11 (500 ng/ml) plus cycloheximide is on record?
Its apoptotic nuclei (DAPI) in MCF7-Fas cells transfected with pMT2 alone, treated 9 h with CH-11 (500 ng/ml) plus cycloheximide is 62%.
